Results from article PMC12500691 (Frontiers in Cellular and Infection Microbiology, 2025).
Where no end group is shown, it is not given here.

T1: SARS-CoV-2 ORF7a (SARS-CoV-2 (Wuhan variant), UniProt P0DTC7 16-96)
T1 construct: also called open reading frame 7a; accessory protein ORF7a; not shown: twin strep tag, N-terminal, kept
T1 sequence: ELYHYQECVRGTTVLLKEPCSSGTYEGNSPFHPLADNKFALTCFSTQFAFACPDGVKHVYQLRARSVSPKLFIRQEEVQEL

B1: LL-37 (peptide)
peptide: LLGDFFRKSKEKIGKEFKRIVQRIKDFLRNLVPRTES
notes: also called synthetic LL-37; human antimicrobial peptide LL-37; source: synthetic peptide, bought: Invivogen
B2: gold-labeled LL-37 (peptide)
peptide: B1 peptide
modifications: also: directly conjugated with colloidal gold
notes: also called LL-37 directly conjugated with colloidal gold; source: synthetic peptide, bought: Invivogen; conjugated with colloidal gold

Tests used:
SARS-CoV-2 ORF7a = biological target: T1, SARS-CoV-2 ORF7a; assay: SPR; details: both partners purified
SARS-CoV-2 ORF8 = biological target: T2, SARS-CoV-2 ORF8 (SARS-CoV-2 (Wuhan variant), UniProt P0DTC8 16-121); assay: negative stain electron microscopy; details: both partners purified
T2 construct: also called open reading frame 8; accessory protein ORF8; not shown: twin strep tag, N-terminal, kept
T2 sequence (P0DTC8 16-121): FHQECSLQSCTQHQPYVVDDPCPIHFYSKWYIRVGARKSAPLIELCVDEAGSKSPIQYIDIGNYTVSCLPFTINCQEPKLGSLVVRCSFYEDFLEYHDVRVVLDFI

Row | Binder | Kd (SARS-CoV-2 ORF7a) [nM] | stoichiometry N (SARS-CoV-2 ORF8)
1 | B1 | 138 | –
2 | B2 | – | 1
